In patent US20210260163A1:

Target: IL-2Rα (on CTLL2 cells) (UniProt P01590)
Assay: cell-based or functional assay

Sequence of IL-2Rα (on CTLL2 cells) (P01590 22-268 limits assumed): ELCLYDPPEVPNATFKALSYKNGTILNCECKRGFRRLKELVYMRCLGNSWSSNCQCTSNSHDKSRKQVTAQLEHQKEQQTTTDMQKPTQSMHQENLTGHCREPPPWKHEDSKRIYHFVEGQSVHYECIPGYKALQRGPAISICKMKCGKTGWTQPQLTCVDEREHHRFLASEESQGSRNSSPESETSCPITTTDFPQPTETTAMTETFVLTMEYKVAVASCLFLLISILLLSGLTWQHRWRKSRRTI

EC50 in the CTLL2 cell-based activity assay [nM]	Substance
77	HSA-IL-2-T3A/C125S-F42A/Y45A/L72G (SEQ ID NO: 126)
76	HSA-IL-2-T3A/C125S-R38S/F42A/Y45A/E62A (SEQ ID NO: 127)
60	IgG1FC (with LALA and Knob)-IL-2-T3A/C125S-R38S/F42A/Y45A/A73T (SEQ ID NO: 135) paired with Fc hole (SEQ ID NO: 194) (from UniProt P0DOX5 223-449) (Fc fusion)
60	IgG1FC (with LALA and Knob)-IL-2-T3A/C125S-R38S/F42A/Y45A/E62A (SEQ ID NO: 132) paired with Fc hole (SEQ ID NO: 194) (from UniProt P0DOX5 223-449) (Fc fusion)
